# Assay results from patent US20110059076A1, “HUMAN SERUM ALBUMIN LINKERS AND CONJUGATES THEREOF” (priority 2008, published 2011).
# “And” between values parts separate entries of the source, which are not always exact repeats. Equal values may be shown once. “Also recorded” adds a separate entry of the source.
# What was measured:
# ErbB3 = ErbB3 (Homo sapiens, UniProt P04626+P21860); test: inhibition of ligand-induced phosphorylation of ErbB3 (general statement); assay type: cell-based
# [1] = test system: BT-474-M3 shPTEN xenografts; test: BT-474-M3 shPTEN xenografts (reduced PTEN activity); assay type: in vivo, nude mice; settings: 30 mg/kg B2B3-1 every 3 days or 10 mg/kg trastuzumab every week, i.p.
# Description: ShRNA technology is applied to knock out the activity of the tumor suppressor gene phosphatase and tensin homolog (PTEN) in BT-474-M3 breast cancer cells. Briefly, cultured BT-474-M3 cells are transfected with shPTEN or shControl RNA by retroviral transfection. Transfected cells with reduced PTEN are selected using FACS and subsequently injected subcutaneously into the right flank of nude mice to establish xenograft tumors. Cells transfected with a control vector are injected into the left flank of the same mouse. […] All injections are done i.p.
# [2] = test system: ErbB3 phosphorylation in ZR75-1 breast cancer cells; test: agonistic activity: pErbB3 ELISA in ZR75-1 cells without HRG; assay type: cell-based; settings: serum starved ZR75-1 cells, 1 μM, 24 hours, no HRG
# Description: (§1) Except as noted, ELISA reagents for total and phospho-ErbB3 ELISAs are purchased from R&D Systems as DUOSET kits. 96-well NUNC MAXISORB plates are coated with 50 μl of an antibody and incubated overnight at room temperature. Next morning, plates are washed 3 times with 1000 μl/well in a BIOTEK plate washer with Dulbecco's phosphate buffered saline without calcium or magnesium (PBS) with added Tween detergent (PBST) (0.05% Tween-20). […] The plates are washed 3 times with 1000 μl/well in the BIOTEK plate washer with PBST. Cells are grown at 37° C. and 5% carbon dioxide, washed with cold PBS, then harvested with mammalian protein extract (MPER) lysis buffer (Pierce, 78505) to which 150 mM NaCl, 5 mM sodium pyrophosphate, 10 uM bpV (phen), 50uM phenylarsine, 1 mM sodium orthovanadate, and protease inhibitor cocktail (Sigma, P2714) is added. 50 μL of cell lysates and standards diluted in 50% Lysis buffer and 1% BSA are used in duplicates for further processing. Samples are incubated for 2hrs at 4° C. on a plate shaker and washed as before. About 50 μl of a detection antibody diluted in 2% BSA, PBST is added and incubated for about 1-2 hrs at room temperature. […] About 50 μL of SUPERSIGNAL ELISA Pico (Thermo Scientific) substrate is added and the plate is read using a FUSION plate reader. […]
# Cells are lysed and the pErbB3 content of the lysates is assessed by ELISA generally as described above.
# [3] = test system: MDA-MB-361 (human breast adenocarcinoma) xenograft; test: MDA-MB-361 xenograft model; assay type: in vivo, mice; settings: MDA-MB-361, 30 mg/kg every 3 days
# Description: Calu-3 (human lung adenocarcinoma; FIG. 17A), SKOV-3 (human ovarian adenocarcinoma; FIG. 17B), NCI-N87 (human gastric carcinoma; FIG. 17C), ACHN (human kidney adenocarcinoma; FIG. 17D), and MDA-MB-361 (human breast adenocarcinoma; FIG. 17E) xenograft model are shown.
# ADRr-E2 xenografts = test: ADRr-E2 (ErbB2 over-expressing) xenograft model; assay type: in vivo, nude mice; settings: ADRr-E2, 30 mg/kg every 3 days
# Description: ErbB2 is over-expressed in ADRr breast cancer cells using a retroviral expression system. Transfected cells expressing high levels of ErbB2 (ADRr-E2) are selected using FACS and subsequently injected subcutaneously into nude mice to establish xenograft tumors.
# [4] = single dose pharmacokinetics in nu/nu mice; assay type: in vivo; settings: for AUC / Clearance / T½β: Mouse (single dose)
# Description: Blood is collected pre-dose and at 0.5, 4, 8, 24, 48, 72, and 120 hours post dose. Three mice are used for each time point. […] The HSA ELISA utilizes a polyclonal-anti HSA capture antibody and a HRP-conjugated polyclonal anti-HSA detection antibody.
# [5] = test system: AKT phosphorylation in ZR75-30 cells; test: HRG-induced AKT phosphorylation ELISA in ZR75-30; assay type: cell-based, human; settings: ZR75-30, dose titration 24 hours, 5 nM HRG 1β EGF domain 10 minutes
# [6] = molecular target: T1, ErbB2-associated complexes in BT474 breast cancer cells (Homo sapiens, UniProt P04626+P21860); test: immunoprecipitation-Western blot of ErbB2-associated complexes; assay type: cell-based; settings: BT474, dose range 24 hours, heregulin stimulation
# T1 construct: endogenous in cells; host or cells: BT474 breast cancer cells
# Description: ErbB2-associated complexes are isolated from cell lysates using an anti-ErbB2 antibody followed by Western blot analysis to detect pErbB2 and pErbB3 and the corresponding total protein levels.
# [7] = test system: p27^kip1 in BT474-M3 breast tumor cells; test: p27kip1 sub-cellular location by immunofluorescence; assay type: cell-based; settings: 1 μM, 6 hours
# Description: The sub-cellular location of p27^kip1 is assessed using immunofluorescence techniques.
# [8] = test system: CD31 in BT474-M3 breast cancer xenograft tumors; test: CD31 staining (vessel density) of xenograft tumors; assay type: in vivo; settings: 30 mg/kg every 3 days, 4 doses
# Description: Tumors are stained for the presence of vascular marker CD31.
# [9] = test system: ErbB3 phosphorylation in ZR75-30 cells; test: HRG-induced ErbB3 phosphorylation ELISA in ZR75-30; assay type: cell-based, human; settings: ZR75-30, dose titration 24 hours, 5 nM HRG 1β EGF domain 10 minutes
# Description: as §1
# [10] = test system: ErbB3 phosphorylation in 9 tumor cell lines; test: pErbB3 inhibition ELISA across 9 tumor cell lines versus ErbB2 expression; assay type: cell-based; settings: 5×10^4 to 2.4×10^6 ErbB2 receptors/cell
# [11] = test system: ErbB3 phosphorylation in BT-474-M3 cells; test: HRG-induced ErbB3 phosphorylation ELISA in BT-474-M3; assay type: cell-based, human; settings: BT-474-M3, dose titration 24 hours, 5 nM HRG 1β EGF domain 10 minutes
# Description: as §1
# [12] = test system: MALME-3M melanoma cells (ErbB2 and ErbB3 receptors); test: cell binding by flow cytometry, apparent binding affinity; settings: MALME-3M cells
# Description: Cell binding is assessed by flow cytometry and apparent binding affinities are determined for each molecule. Control cells are incubated with secondary antibody alone.
# [13] = test system: signaling proteins in BT474 breast cancer cells; test: Western blot of signaling proteins in BT474 cells; assay type: cell-based; settings: BT474, dose range 24 hours, heregulin stimulation
# Description: Levels of pErbB2, pErbB3, pErk and pAKT and their corresponding total protein levels are determined on cell lysates by Western blot analysis.
# [14] = test system: human BT-474-M3 xenografts; test: dose response in BT-474-M3 breast cancer xenograft model; assay type: in vivo, nude mice; settings: 0.3, 1, 3, 10, 30 or 90 mg/kg i.p. every 3 days, 12 doses
# Description: All doses are administered interperitoneally (i.p.). Tumor size is measured twice a week and the corresponding tumor volume is calculated.
substance,measurement,setting,value
B2B3-1: bispecific scFv antibody fusion: anti-ErbB3 scFv H3 and anti-ErbB2 scFv B1D2 joined by a modified human serum albumin (HSA) linker,potency of inhibition of ligand-induced phosphorylation of ErbB3,ErbB3,sub-nanomolar
same,size of tumors formed by BT-474-M3 cells lacking expression of PTEN,[1],promoted a reduction
same,levels of phosphorylated ErbB3 with B2B3-1 alone (agonistic activity),[2],comparable to the levels in untreated cells; also recorded: does not stimulate ErbB3 phosphorylation
same,tumor size reduction,[3],efficacious
same,xenograft response,ADRr-E2 xenografts,responded; also recorded: responder
same,AUC,[4]; 5 mg/kg IV,1.58E+03 hr-μg/ml
same,Clearance,[4]; 5 mg/kg IV,3.19 mL/h/kg
same,T½β,"[4]; 5 mg/kg IV, 5 mg/kg",17 h and 16.9 h
same,AUC,[4]; 15 mg/kg IV,6.10E+03 hr-μg/ml
same,Clearance,[4]; 15 mg/kg IV,2.47 mL/h/kg
same,T½β,"[4]; 15 mg/kg IV, 15 mg/kg",16 h and 16.2 h
same,AUC,[4]; 30 mg/kg IV,1.18E+04 hr-μg/ml
same,Clearance,[4]; 30 mg/kg IV,2.54 mL/h/kg
same,T½β,"[4]; 30 mg/kg IV, 30 mg/kg",23 h and 22.6 h
same,AUC,[4]; 45 mg/kg IV,1.84E+04 hr-μg/ml
same,Clearance,[4]; 45 mg/kg IV,2.46 mL/h/kg
same,T½β,"[4]; 45 mg/kg IV, 45 mg/kg",18 h and 17.5 h
same,dose-exposure relationship,"[4]; nu/nu mice, 5, 15, 30 and 45 mg/kg bolus doses",linear increase in overall exposure
same,inhibition of HRG induced AKT phosphorylation,[5],inhibits
same,ErbB3 and phospho-ErbB3 precipitated by the anti-ErbB2 antibody,[6],crosslinks ErbB2 to ErbB3
same,sub-cellular location of p27^kip1,[7],translocated to the nucleus; also recorded: translocation of cell cycle inhibitor p27^kip1 to the nucleus
same,vessel density (CD31) compared to HSA treated tumors,[8],marked decrease in vessel density; also recorded: reduction of vessel density
same,inhibition of HRG induced ErbB3 phosphorylation,[9],inhibits
same,% pErbB3 inhibition in relation to ErbB2 expression levels,[10],correlates positively
same,inhibition of HRG induced ErbB3 phosphorylation,[11],inhibits
same,apparent binding affinity KD,[12],significant increase in apparent binding affinity
same,levels of pErbB2,[13],reduced in a dose-dependent manner
same,levels of pErbB3,[13],reduced in a dose-dependent manner
same,complete regressions,[14],Complete regressions were observed in each of the B2B3-1 treatment groups except mice treated with the lowest dose
same,tumor size compared to the control group,[14],significant reduction
